Source: patent US20090131309A1, “ICA512 COUPLES INSULIN SECRETION AND GENE EXPRESSION IN BETA-CELLS” (Technische Universität Dresden Medizinizche Fakultät Carl …, priority 2004, published 2009)
Positions count from the first letter of the chain named. Each block holds one molecule with its values, some of them ahead of it. Starred links: 1 amine or outer side, 2 acyl side, 3 side chain; linkers in the order of their positions; H or OH if unused. Positions of bridges follow the written chain, without caps; N, C: chain ends. Non-standard residues stand in square brackets, D forms with d. Residues, ends and D or L forms follow the SMILES beside them. Chains are numbered I, II in the order given. Actinocin(9to1) = Cc1c2oc3c(C)ccc(C(=O)[*:1])c3nc-2c(C(=O)[*:2])c(N)c1=O; NMeV = CN[C@H](C(=O)O)C(C)C; Sar = CNCC(=O)O

Experiments:
[1] = test system: INS-1 cells; test: Uridine incorporation in INS-1 cells; type: cell-based, rat; conditions: 5 μg/ml actinomycin D; ICA512-CCF-GFP-transfected INS-1 cells
[2] = test system: pro-ICA512; conditions: cells stimulated for 2 hours; reference 8; cited from earlier work
[3] = molecular target: T1, STAT5b (rat, UniProt P52632 1-786); test: cell-based or functional assay
T1 sequence (looked up): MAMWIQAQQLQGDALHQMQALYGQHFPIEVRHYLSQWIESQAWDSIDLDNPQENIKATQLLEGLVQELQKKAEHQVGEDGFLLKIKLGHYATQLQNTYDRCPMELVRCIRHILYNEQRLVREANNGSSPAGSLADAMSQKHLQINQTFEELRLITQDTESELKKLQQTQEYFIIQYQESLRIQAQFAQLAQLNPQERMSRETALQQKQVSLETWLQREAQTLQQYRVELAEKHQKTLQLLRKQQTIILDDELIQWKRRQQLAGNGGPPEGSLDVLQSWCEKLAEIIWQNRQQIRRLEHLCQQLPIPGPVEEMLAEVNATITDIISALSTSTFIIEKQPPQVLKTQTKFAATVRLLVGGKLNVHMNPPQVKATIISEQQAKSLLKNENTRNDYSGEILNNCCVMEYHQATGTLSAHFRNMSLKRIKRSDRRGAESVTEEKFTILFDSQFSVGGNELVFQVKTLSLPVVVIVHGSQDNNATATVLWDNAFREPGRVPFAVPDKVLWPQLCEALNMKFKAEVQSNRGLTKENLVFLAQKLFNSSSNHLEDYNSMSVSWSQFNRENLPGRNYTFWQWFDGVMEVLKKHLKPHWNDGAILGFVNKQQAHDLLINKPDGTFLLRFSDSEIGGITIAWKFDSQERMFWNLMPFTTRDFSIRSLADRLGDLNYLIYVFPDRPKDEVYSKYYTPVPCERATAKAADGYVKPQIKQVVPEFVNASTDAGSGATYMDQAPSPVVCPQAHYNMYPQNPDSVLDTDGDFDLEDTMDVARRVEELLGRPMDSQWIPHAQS

[4] = molecular target: T1, STAT5b; test: anti-GFP immunoprecipitation from total INS-1 extracts, immunoblot for STAT5b
Procedure: Immunoprecipitation. INS-1 cells were transiently transfected With one or more of the following constructs: GFP, ICA512-CCF-GFP, ICA512-CCF(K/A⁷⁵⁴)-GFP, SUMO-1 and HA-SUMO-1. Anti-GFP IgGs were used for immunoprecipitations from total or cytosolic extracts. Immunoprecipitates were immunoblotted with anti-STAT5b, anti-PY-STAT5, anti-GFP or anti-HA antibodies. 600 μg and 200 μg protein were used as starting material for immunopreciptation of sumoylated ICA512 and STAT5, respectively.

[5] = molecular target: T2, PIASy-YFP (mouse, UniProt Q9JM05 2-507); test: FRET by acceptor photobleaching in nuclei of co-transfected INS-1 cells
T2 construct: whole, on cells; Transiently expressed in INS-1 cells; nuclear; not shown: YFP encoded by pEYFP-N2 (Clontech), fused at the C-terminus
T2 sequence (looked up): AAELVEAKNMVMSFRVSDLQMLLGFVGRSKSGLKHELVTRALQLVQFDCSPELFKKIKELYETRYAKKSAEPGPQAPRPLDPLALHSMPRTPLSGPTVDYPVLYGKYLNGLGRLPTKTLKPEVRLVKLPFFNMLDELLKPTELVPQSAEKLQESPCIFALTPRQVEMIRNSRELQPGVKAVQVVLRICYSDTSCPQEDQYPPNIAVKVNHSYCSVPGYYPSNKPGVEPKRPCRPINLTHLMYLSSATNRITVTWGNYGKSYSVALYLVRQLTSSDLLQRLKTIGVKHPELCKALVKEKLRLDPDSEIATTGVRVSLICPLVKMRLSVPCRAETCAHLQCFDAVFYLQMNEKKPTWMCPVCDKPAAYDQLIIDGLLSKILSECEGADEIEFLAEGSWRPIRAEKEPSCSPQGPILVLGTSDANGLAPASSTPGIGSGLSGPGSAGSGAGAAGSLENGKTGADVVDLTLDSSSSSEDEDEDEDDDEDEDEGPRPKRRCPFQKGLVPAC
Procedure: FRET analysis. INS-1 cells transiently co-transfected with ICA512-CFP, PIASy-YFP, Ism4-YFP and Ism4-CFP were incubated either in resting or stimulating buffer for 90 minutes. Following fixation in 2% paraformahaldehyde, cells were imaged with an inverted […] confocal microscope (Zeiss) using a Plan-Apochromat 100× 1.4 oil DIC objective, The pinhole diameter was set between 1.0 and 1.25 Airy-Unit. […] 458 nm and 514 nm laser lines were used to excite CFP and YFP, respectively. CFP images were acquired with a 458 nm dichroic mirror and a bandpass filter of 475-495, while YFP fluorescence was collected with a 514 nm dichroic mirror and a bandpass filter of 530-600 nm. FRET was assessed by measuring the dequenching of CFP during the photobleaching of YFP performed with the 514 nm laser line at 70% power and for six cycles of 30 sec. each. Mean fluorescence of CFP and YFP were determined by tracing the nuclear perimeter of the cell using the “region of interest” software function. Fluorescence intensity of CFP after photobleaching was normalized to 100% at time 0. In each experiment, 6-9 fields for each slide were photobleached and recorded. Each experiment was independently performed two times.

[6] = molecular target: T3, in-vitro transcribed and translated [^35S]-labeled PIASy (mouse, UniProt Q9JM05 1-507, [35S]-methionine label); test: GST pull-down, SDS-PAGE and autoradiography
T3 construct: The mouse PIASy cDNA in pcDNA3.1 is the only untagged PIASy construct described; also called [^35S]-PIASy; [^35S]-methionine-PIASy
T3 sequence (looked up): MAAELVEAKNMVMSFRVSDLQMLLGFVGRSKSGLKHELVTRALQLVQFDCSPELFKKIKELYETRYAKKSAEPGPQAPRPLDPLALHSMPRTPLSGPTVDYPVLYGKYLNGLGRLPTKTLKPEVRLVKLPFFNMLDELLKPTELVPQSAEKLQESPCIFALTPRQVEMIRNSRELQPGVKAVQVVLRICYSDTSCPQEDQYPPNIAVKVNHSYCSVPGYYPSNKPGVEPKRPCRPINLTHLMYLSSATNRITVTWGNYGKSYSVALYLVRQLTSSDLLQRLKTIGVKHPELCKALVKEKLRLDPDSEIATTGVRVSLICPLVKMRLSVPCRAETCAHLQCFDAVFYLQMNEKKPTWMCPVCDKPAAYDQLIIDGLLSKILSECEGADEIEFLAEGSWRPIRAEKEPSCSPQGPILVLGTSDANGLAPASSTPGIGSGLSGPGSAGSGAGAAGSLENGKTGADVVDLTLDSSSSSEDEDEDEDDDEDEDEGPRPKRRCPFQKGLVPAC

Molecule: Cc1c2oc3c(C)ccc(C(=O)N[C@@H]4C(=O)N[C@H](C(C)C)C(=O)N5CCC[C@H]5C(=O)N(C)CC(=O)N(C)[C@@H](C(C)C)C(=O)O[C@@H]4C)c3nc-2c(C(=O)N[C@@H]2C(=O)N[C@H](C(C)C)C(=O)N3CCC[C@H]3C(=O)N(C)CC(=O)N(C)[C@@H](C(C)C)C(=O)O[C@@H]2C)c(N)c1=O [actinomycin D, reference compound] (I: T[dV]P[Sar][NMeV] / II: T[dV]P[Sar][NMeV]; ester I:1-I:C, II:1-II:C; linker I:N-II:N via Actinocin(9to1))
effect on the increase of 3H-uridine incorporation [1]: abolished | rapid induction of pro-ICA512 [2]: did not prevent the rapid induction of pro-ICA512

luciferase activity of the STAT reporter 8GLE-CAS-FL in hGH-stimulated INS-1 cells, relative to GFP cells [3]: > 500%
B1: ICA512-CCF-GFP (other, not shown: large carriers)
chain: SQFSDAAQASPSSHSSTPSWCEEPAQANMDISTGHMILAYMEDHLRNRDRLAKEWQALCAYQAEPNTCATAQGEGNIKKNRHPDFLPYDHARIKLKVESSPSRSDYINASPIIEHDPRMPAYIATQGPLSHTIADFWQMVWESGCTVIVMLTPLVEDGVKQCDRYWPDEGASLYHVYEVNLVSEHIWCEDFLVRSFYLKNVQTQETRTLTQFHFLSWPAEGTPASTRPLLDFRRKVNKCYRGRSCPIIVHCSDGAGRTGTYILIDMVLNRMAKGVKEIDIAATLEHVRDQRPGLVRSKDQFEFALTAVAEEVNAILKALPQ

binding result [4]: binds
B2: ICA512-CCF(K/A^754)-GFP (other)
chain: B1 chain with K96A
notes: Expressed in INS-1 cells; not shown: GFP encoded by pEGFP-N1 (Clontech), fused at the C-terminus

fold increase of the recovery of ICA512-CFP signal after photobleaching of PIASy-YFP (FRET), stimulated against resting cells [5]: ~5 fold
B3: ICA512-CFP (other)
chain: B1 chain
notes: The FRET was read in the nucleus, so the partner of PIASy-YFP there is the cleaved cytoplasmic fragment ICA512-CCF-CFP; Its N-terminal limit in cells is not determined; also called ICA512-CCF-CFP (its cleaved cytoplasmic fragment in the nucleus); not shown: CFP encoded by pECFP-N1 (Clontech), fused at the C-terminus

binding result [6]: no binding
B4: GST-ICA512 (800-979) (other)
chain: ESGCTVIVMLTPLVEDGVKQCDRYWPDEGASLYHVYEVNLVSEHIWCEDFLVRSFYLKNVQTQETRTLTQFHFLSWPAEGTPASTRPLLDFRRKVNKCYRGRSCPIIVHCSDGAGRTGTYILIDMVLNRMAKGVKEIDIAATLEHVRDQRPGLVRSKDQFEFALTAVAEEVNAILKALPQ
notes: Bacterially expressed; not shown: glutathione S-transferase (GST) fusion partner
